Measurements published in patent publication US20080124320A1, “Use of HMGB fragments as anti-inflammatory agents” (priority 2002, published 2008).

Experiments:
[1] = biological target: Recombinant full length human HMGB1 (wild type HMGB1) (human); assay: cell-based or functional assay
[2] = biological target: RAGE on murine macrophage-like RAW 264.7 cells (mouse (murine RAW 264.7 cells)) (UniProt Q62151); assay: cell-based or functional assay
RAW 264.7 cells [3] = assay: TNF release from RAW 264.7 cells, L929 cytotoxicity bioassay; assay type: cell-based, murine
Protocol: (§1) Murine macrophage-like RAW 264.7 cells (American Type Culture Collection, Rockville, Md.) were cultured in RPMI 1640 medium (Life Technologies, Grand Island N.Y.) supplemented with 10% fetal bovine serum (Gemini, Catabasas, Calif.), penicillin and streptomycin (Life Technologies) and were used at 90% confluence in serum-free Opti-MEM I medium (Life Technologies, Grand Island, N.Y.). […] Polymyxin B was not used in experiments of synthetic peptide studies.
TNF release was measured by a standard murine fibroblast L929 (ATCC, American Type Culture Collection, Rockville, Md.) cytotoxicity bioassay (Bianchi et al., Journal of Experimental Medicine 183:927-936, 1996) with the minimum detectable concentration of 30 pg/ml. […]
The effect of the mutants on TNF release from Murine macrophage-like RAW 264.7 cells (ATCC) was carried out as follows. […] Conditioned supernatants (containing TNF which had been released from the cells) were collected and TNF released from the cells was measured by a standard murine fibroblast L929 (ATCC) cytotoxicity bioassay (Bianchi et al., supra) with the minimum detectable concentration of 30 pg/ml. […]
To further examine the effect of HMGB1 B box on cytokine production, varying amounts of HMGB1 B box were evaluated for the effects on TNF, IL-1, and IL-6 production in murine macrophage-like RAW 264.7 cells. […]

[4] = system: Balb/c mice subjected to CLP; assay: Cecal ligation and puncture (CLP) sepsis, survival of Balb/c mice; assay type: in vivo, mouse; details: i.p. twice daily for 3 days beginning 24 hours after CLP
Protocol: Cecal ligation and puncture (CLP) was performed as described previously (Fink and Heard, J. Surg. Res. 49:186-196, 1990; Wichmann et al., Crit. Care Med. 26:2078-2086, 1998; and Remick et al., Shock 4:89-95, 1995). Briefly, Balb/c mice were anesthetized with 75 mg/kg ketamine (Fort Dodge, Fort Dodge, Iowa) and 20 mg/kg of xylazine (Bohringer Ingelheim, St. Joseph, Mo.) intramuscularly. A midline incision was performed, and the cecum was isolated. A 6-0 prolene suture ligature was placed at a level 5.0 mm from the cecal tip away from the ileocecal valve.
The ligated cecal stump was then punctured once with a 22-gauge needle, without direct extrusion of stool. The cecum was then placed back into its normal intra-abdominal position. […] Mortality was recorded for up to 1 week after the procedure; survivors were followed for 2 weeks to ensure no late mortalities had occurred.
To determine whether the HMGB1 A box can inhibit the lethality of HMGB1 during sepsis, mice were subjected to cecal perforation and treated by administration of A box beginning 24 hours after the onset of sepsis. […] Survival was monitored twice daily for up to 2 weeks to ensure no late death occurred. […]
Passive immunization of critically ill septic mice with anti-HMGB1 antibodies was also assessed. […] Survival was monitored for 2 weeks. […]

C3H/HeJ mice = assay: Lethality and histology in C3H/HeJ mice; assay type: in vivo, mouse; details: 8 hours after administration
RAW 264.7 cells [5] = assay: IL-6 release from RAW 264.7 cells, ELISA; assay type: cell-based, murine; details: B box 0-10 μg/ml, 8 hours (FIG. 2C)
Protocol: as §1
To further examine the effect of HMGB1 B box on cytokine production, varying amounts of HMGB1 B box were evaluated for the effects on TNF, IL-1, and IL-6 production in murine macrophage-like RAW 264.7 cells. Conditioned media were harvested and measured for TNF, IL-1β and IL-6 levels. TNF levels were measured as described herein, and IL-1β and IL-6 levels were measured using the mouse IL-1β and IL-6 enzyme-linked immunosorbent assay (ELISA) kits (R&D System Inc., Minneapolis, Minn.) and N>5 for all experiments.

[6] = system: NF-κB-dependent ELAM promoter; assay: NF-κB dependent ELAM promoter luciferase reporter in RAW 264.7 macrophages; assay type: cell-based, murine; details: HMGB1 100 ng/ml or B box 10 μg/ml, 5 hours; decreased with MyD 88 dominant negative (FIG. 11B)
Protocol: To examine the effects of HMGB1 or HMGB1 B box on the NF KB dependent ELAM promoter, the following experiment was carried out. RAW 264.7 macrophages were transiently co transfected with an expression plasmid encoding a murine MyD 88 dominant negative (DN) mutant (corresponding to amino acids 146 296), or empty vector, plus a luciferase reporter plasmid under the control of the NF κB dependent ELAM promoter, as described by Means et al. (J. Immunol. 166:4074 4082, 2001). A portion of the cells were then stimulated with full length HMGB1 (100 ng/ml), or purified HMGB1 B box (10 μg/ml), for 5 hours. Cells were then harvested and luciferase activity was measured, using standard methods. All transfections were performed in triplicate, repeated at least three times, and a single representative experiment is shown in FIG. 11B.

Sequence of RAGE on murine macrophage-like RAW 264.7 cells (mouse (murine RAW 264.7 cells)) (Q62151 23-402): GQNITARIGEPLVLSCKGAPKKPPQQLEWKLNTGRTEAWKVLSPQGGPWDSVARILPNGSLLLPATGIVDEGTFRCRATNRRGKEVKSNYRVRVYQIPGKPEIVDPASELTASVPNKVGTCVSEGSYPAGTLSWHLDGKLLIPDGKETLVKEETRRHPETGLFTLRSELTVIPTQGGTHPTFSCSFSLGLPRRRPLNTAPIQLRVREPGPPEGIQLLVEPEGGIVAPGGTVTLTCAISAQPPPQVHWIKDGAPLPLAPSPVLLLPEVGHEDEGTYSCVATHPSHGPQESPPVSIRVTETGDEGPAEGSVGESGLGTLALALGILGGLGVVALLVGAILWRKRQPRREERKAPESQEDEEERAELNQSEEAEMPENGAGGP

HMGB1 A box protein (Amino terminus + A box mutant of human HMGB1) (from UniProt A9RA84 1-85)
inhibition of HMGB1 induced TNF release from RAW 264.7 cells (L929 cytotoxicity assay) [1]: 7.5 µg/mL

Recombinant full length human HMGB1 (wild type HMGB1) (from UniProt A9RA84 1-215) (ligand)
decrease of HMG-1 signaling (TNF release from RAW 264.7 cells) by anti-RAGE antibody [2]: 40%

fkdpnapkrlpsafflfcse (FKDPNAPKRLPSAFFLFCSE; listed as Homo sapiens) [1-20]
TNF release by synthetic B box peptide fragments (RAW 264.7 cells [3]; synthetic peptide 10 μg/ml, 10 hours, no polymyxin B (FIG. 3), listed as 1-20-mer): less potent than either the full length synthetic B box (1-74-mer), or full length HMGB1

B1: A box: Recombinant human HMGB1 amino terminus + A box mutant, SEQ ID NO:21 (A box SEQ ID NO:22), GST fusion system (protein, listed as Homo sapiens)
chain: MGKGDPKKPTGKMSSYAFFVQTCREEHKKKHPDASVNFSEFSKKCSERWKTMSAKEKGKFEDMAKADKARYEREMKTYIPPKGET
modifications: GST fusion
clinical condition of animals ([4]; 60 μg/mouse): most died | clinical condition of animals ([4]; 600 μg/mouse): significantly more alert, active, and to resume feeding behavior

B2: B box: Recombinant human HMGB1 B box mutant polypeptide, SEQ ID NO:20, expressed with a GST gene fusion system in E. coli (protein, listed as Homo sapiens)
chain: FKDPNAPKRLPSAFFLFCSEYRPKIKGEHPGLSIGDVAKKLGEMWNNTAADDKQPYEKKAAKLKEKYEKDIAAY
modifications: GST fusion
TNF protein expression over time versus medium only (RAW 264.7 cells [3]; 10 μg/ml, 0-48 hours (FIGS. 2E, 2F)): stimulated TNF protein expression | histology of heart (C3H/HeJ mice): evidence of ischemia with loss of cross striation associated with amorphous pink cytoplasm in myocardial fibers | histology of liver (C3H/HeJ mice): mild acute inflammatory responses, with some hepatocyte dropout and apoptosis, and occasional polymorphonuclear leukocytes | IL-6 release, dose response (RAW 264.7 cells [5]): increased with increased amounts of B box

B3: HMGB1: Recombinant full length human HMGB1, SEQ ID NO:18; recombinant rat HMGB1 used in some experiments (protein, listed as Homo sapiens)
chain: MGKGDPKKPTGKMSSYAFFVQTCREEHKKKHPDASVNFSEFSKKCSERWKTMSAKEKGKFEDMAKADKARYEREMKTYIPPKGETKKKFKDPNAPKRLPSAFFLFCSEYRPKIKGEHPGLSIGDVAKKLGEMWNNTAADDKQPYEKKAAKLKEKYEKDIAAYRAKGKPDAAKKGVVKAEKSKKKKEEEEDEEDEEDEEEEEDEEDEEDEEEDDDDE
luciferase activity (NF-κB dependent ELAM promoter) [6]: stimulated luciferase activity
